Measured values as given in patent US20210047372A1 (Affibody, published 2021).
Substitutions are numbered along the chain they refer to. In names and notes the source's numbering stands. Read-outs that look alike come from different tables or passages of the source.

Columns and labels:
Experiment in all cases: SPR, Biacore T200; target immobilized on CM5, His6-tagged Y variant injected; 1:1 Langmuir
[1] = target: T1, complement component 4 (C4) (UniProt P0C0L4 20-675; P0C0L4 680-1446; P0C0L4 1454-1744, limits assumed)
T1 construct: Natural C4 is a three-chain protein (alpha, beta, gamma) made from one precursor; Biotinylated for ELISA, amine-coupled to the chip for SPR; also called b-C4
T1 sequence (P0C0L4 20-675 limits assumed, chain 1 of 3): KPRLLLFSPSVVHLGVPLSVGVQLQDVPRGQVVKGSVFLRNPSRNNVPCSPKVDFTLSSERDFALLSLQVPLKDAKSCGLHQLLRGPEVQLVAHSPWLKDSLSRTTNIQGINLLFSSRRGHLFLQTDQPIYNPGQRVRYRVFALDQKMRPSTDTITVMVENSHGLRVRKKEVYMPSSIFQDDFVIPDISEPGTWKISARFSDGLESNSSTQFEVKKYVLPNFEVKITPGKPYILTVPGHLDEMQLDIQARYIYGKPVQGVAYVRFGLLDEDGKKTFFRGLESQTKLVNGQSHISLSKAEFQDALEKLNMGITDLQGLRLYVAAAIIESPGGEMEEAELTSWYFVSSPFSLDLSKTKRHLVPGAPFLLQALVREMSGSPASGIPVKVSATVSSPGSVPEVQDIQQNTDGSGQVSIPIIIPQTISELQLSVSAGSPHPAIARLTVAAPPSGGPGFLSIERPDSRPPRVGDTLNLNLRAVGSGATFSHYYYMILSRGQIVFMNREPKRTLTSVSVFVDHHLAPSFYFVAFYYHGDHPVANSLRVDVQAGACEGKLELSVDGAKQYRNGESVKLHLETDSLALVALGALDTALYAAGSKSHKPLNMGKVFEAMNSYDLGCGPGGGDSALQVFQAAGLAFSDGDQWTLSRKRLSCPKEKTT
T1 sequence (P0C0L4 680-1446 limits assumed, chain 2 of 3): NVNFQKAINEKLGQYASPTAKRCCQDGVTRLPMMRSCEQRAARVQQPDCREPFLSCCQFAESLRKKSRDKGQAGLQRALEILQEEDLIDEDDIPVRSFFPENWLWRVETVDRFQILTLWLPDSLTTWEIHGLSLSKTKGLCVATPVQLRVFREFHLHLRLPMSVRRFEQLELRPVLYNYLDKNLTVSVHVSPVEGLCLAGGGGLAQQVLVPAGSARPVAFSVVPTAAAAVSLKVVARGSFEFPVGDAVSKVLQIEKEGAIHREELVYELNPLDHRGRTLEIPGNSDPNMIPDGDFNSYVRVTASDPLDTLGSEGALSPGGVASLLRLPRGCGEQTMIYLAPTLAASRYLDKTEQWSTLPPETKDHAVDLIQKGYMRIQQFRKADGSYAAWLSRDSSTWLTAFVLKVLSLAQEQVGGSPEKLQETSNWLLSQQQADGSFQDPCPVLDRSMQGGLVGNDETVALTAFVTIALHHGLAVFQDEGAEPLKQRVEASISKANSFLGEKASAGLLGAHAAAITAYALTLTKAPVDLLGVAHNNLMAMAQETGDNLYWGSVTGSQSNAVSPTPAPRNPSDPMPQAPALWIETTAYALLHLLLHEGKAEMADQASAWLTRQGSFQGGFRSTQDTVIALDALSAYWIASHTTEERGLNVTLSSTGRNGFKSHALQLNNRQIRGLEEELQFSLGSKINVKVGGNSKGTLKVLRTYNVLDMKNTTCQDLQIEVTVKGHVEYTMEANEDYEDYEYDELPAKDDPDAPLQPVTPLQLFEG
T1 sequence (P0C0L4 1454-1744 limits assumed, chain 3 of 3): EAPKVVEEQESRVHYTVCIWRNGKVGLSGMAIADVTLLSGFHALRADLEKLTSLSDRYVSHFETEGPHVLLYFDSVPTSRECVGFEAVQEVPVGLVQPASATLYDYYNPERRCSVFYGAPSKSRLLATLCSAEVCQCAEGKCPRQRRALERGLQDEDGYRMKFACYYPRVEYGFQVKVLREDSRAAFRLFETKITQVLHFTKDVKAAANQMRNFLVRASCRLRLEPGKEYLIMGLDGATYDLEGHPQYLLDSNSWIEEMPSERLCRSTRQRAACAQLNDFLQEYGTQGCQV
Method: (§1) Kinetic constants (kₐ and kd) and affinities (KD) were determined for Hiss-tagged Y variants using a Biacore T200 instrument (GE Healthcare). Target proteins C4, IL-6 and insulin, respectively, were immobilized in separate flow cells on the carboxylated dextran layer of different CM5 chip surfaces (GE Healthcare).
(§2) Immobilization was performed using amine coupling chemistry according to the manufacturer's protocol and PBS pH 7.4 supplemented with 0.1 Tween20 (PBST 0.1%) as running buffer. The ligand immobilization levels on the surfaces were 3280-8830 RU for C4, 495-1184 RU for IL-6, and 270-282 RU for insulin. One flow cell surface on each chip was activated and deactivated for use as blank during analyte injections. In the kinetic experiment, PBST 0.1% was used as running buffer at a flow rate of 30 μl/min. The analytes, i.e. Y variants, were each diluted in PBST 0.1 buffer at concentrations of 1000, 500, 100, 50 and 10 nM and injected for 5 min, followed by dissociation in running buffer for 3 min. After dissociation, the surfaces were regenerated with one injection of 30 μl 10 mM HCl. Kinetic constants were calculated from the sensorgrams using the Langmuir 1:1 model of Biacore T200 Evaluation software 2.0 (GE Healthcare).

insulin [2] = target: T2, insulin (UniProt P01308 25-54; P01308 90-110, limits assumed)
T2 construct: Mature insulin has two chains (A and B) from one precursor; also called b-insulin
T2 sequence (P01308 25-54 limits assumed, form in doubt, chain 1 of 2): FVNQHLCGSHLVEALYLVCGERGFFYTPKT
T2 sequence (P01308 90-110 limits assumed, form in doubt, chain 2 of 2): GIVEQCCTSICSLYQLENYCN
Method: as §1, §2

insulin [3] = target: T2, insulin; remark: listed apart in the source
Method: as §1, §2

interleukin 6 (IL-6) = target: T3, interleukin 6 (IL-6) (UniProt P05231 30-212)
T3 construct: also called b-IL-6
Method: as §1, §2

B1: Y02358 (designed binder)
chain: MGSSHHHHHHGSSLAEAKEAAIAELDSKGVGADDIKLIQDAPSVEGVQEIKQFILAQLPA
notes: From library Ylib002Naive.I
[1]
  Kd: 16 nM
  koff: 0.0014 s⁻¹
  kon: 90000 M⁻¹ s⁻¹

B2: Y00032 (designed binder)
chain: MGSSHHHHHHGSSLAEAKEAAIAELDSKGVGAYQKSFIELAKSVEHVELLKEAILADLP
Insulin [2]
  Kd: 63 nM
Insulin [3]
  Kd: 63 nM

B3: Y00295 (designed binder)
chain: B2 chain with K35I, S36K, E48Q, E52Q, A56K
notes: Y00270 with E35Q + E39Q + A43K
Insulin [3]
  Kd: 580 nM

B4: Y00270 (designed binder)
chain: B2 chain with K35I, S36K
notes: Y00032 with K22I + S23K
Insulin [2]
  Kd: 77 nM
Insulin [3]
  Kd: 77 nM

B5: Y00293 (designed binder)
chain: B2 chain with K35I, S36K, E48Q, E52Q
notes: Y00270 with E35Q + E39Q; also called Y000293
Insulin [3]
  Kd: 490 nM

B6: Y00292 (designed binder)
chain: B2 chain with S36K, E48Q, E52Q
notes: Y00032 with S23K + E35Q + E39Q
Insulin [3]
  Kd: 450 nM

B7: Y00294 (designed binder)
chain: B2 chain with K35I, S36K, E48Q, A56K
notes: Y00270 with E35Q + A43K
Insulin [3]
  Kd: 490 nM

B8: Y02309 (designed binder)
chain: MGSSHHHHHHGSSLAEAKEAAIAELDSKGVGADLIKKIQKAESVEGVQFWKQEILATLPA
notes: From library Ylib002Naive.I
[1]
  Kd: 70 nM
  koff: 0.0025 s⁻¹
  kon: 36000 M⁻¹ s⁻¹

B9: Y00792 (designed binder)
chain: B8 chain with K40Q, E42S, T57Q
notes: From library Ylib002Naive.I
[1]
  Kd: 62 nM
  koff: 0.0017 s⁻¹
  kon: 27000 M⁻¹ s⁻¹

B10: Y02330 (designed binder)
chain: B8 chain with D33E, K40H, T57Y
notes: From library Ylib002Naive.I
[1]
  Kd: 48 nM
  koff: 0.0046 s⁻¹
  kon: 96000 M⁻¹ s⁻¹

B11: Y02303 (designed binder)
chain: MGSSHHHHHHGSSLAEAKEAAIAELDSKGVGAEEIKWIQNAWSVEGVQIMKQQILAELPA
notes: From library Ylib002Naive.I
[1]
  Kd: 2200 nM
  koff: 0.21 s⁻¹
  kon: 96000 M⁻¹ s⁻¹

B12: Y02337 (designed binder)
chain: B11 chain with E33A, N40H, W42S, S43T, I49G, M50R
notes: From library Ylib002Naive.I
[1]
  Kd: 1900 nM
  koff: 0.81 s⁻¹
  kon: 420000 M⁻¹ s⁻¹

B13: Y02701 (designed binder)
chain: MGSSHHHHHHGSSLAEAKEAAIAELDSYGVGAGDIKDIQDALLVEIVQLLKQAILAVLPA
notes: Y02415 with K15Y
Interleukin 6 (IL-6)
  Kd: 210 nM
  koff: 0.0036 s⁻¹
  kon: 21000 M⁻¹ s⁻¹

B14: Y02703 (designed binder)
chain: B13 chain with G33V, D34E, D37Q, Q39E, D40E
notes: Y02444 with K15Y + Q26E
Interleukin 6 (IL-6)
  Kd: 120 nM
  koff: 0.0025 s⁻¹
  kon: 21000 M⁻¹ s⁻¹

B15: Y02702 (designed binder)
chain: B13 chain with Y28K, Q39E
notes: Y02415 with Q26E
Interleukin 6 (IL-6)
  Kd: 440 nM
  koff: 0.007 s⁻¹
  kon: 16000 M⁻¹ s⁻¹
